Measurements taken from PMC10783527.

Tests used:
[1] = target: BCL11B213-560 (UniProt Q9C0K0 213-560); experiment: EMSA
[2] = target: T1, NTHL1 (UniProt P78549 1-304); experiment: EMSA
T1 sequence: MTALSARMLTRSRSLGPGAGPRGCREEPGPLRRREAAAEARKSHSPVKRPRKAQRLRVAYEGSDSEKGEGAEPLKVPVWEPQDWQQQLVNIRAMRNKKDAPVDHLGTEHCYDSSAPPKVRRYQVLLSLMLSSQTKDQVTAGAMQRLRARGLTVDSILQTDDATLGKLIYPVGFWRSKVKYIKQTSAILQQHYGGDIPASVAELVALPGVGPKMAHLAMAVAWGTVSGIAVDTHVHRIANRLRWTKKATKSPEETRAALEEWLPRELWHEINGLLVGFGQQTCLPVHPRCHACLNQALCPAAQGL

BCL11B213-560, sequence (Q9C0K0 213-560): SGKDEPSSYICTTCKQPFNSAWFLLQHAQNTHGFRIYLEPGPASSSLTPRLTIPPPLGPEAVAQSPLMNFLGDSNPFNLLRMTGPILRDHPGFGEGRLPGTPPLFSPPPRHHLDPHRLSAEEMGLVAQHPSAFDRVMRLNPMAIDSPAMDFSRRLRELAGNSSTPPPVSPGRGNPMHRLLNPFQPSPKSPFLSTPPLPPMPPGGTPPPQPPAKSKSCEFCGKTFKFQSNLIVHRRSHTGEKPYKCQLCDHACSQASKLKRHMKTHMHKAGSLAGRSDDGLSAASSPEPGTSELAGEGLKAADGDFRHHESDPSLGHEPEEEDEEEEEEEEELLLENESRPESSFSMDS

B1: thymine glycol 32-mer duplex (dsDNA)
DNA 1: CCGGTGCATGACACTGTTACCTATCCTCAGCG
DNA 2: CGCTGAGGATAGGTAACAGTGTCATGCACCGG
modifications: thymine glycol at position 18 of strand 1 (printed X, written T)
B1: no binding [1]; binds [2].
